We go through 1 substance from publication PMC8067585.

The assay concerns the target CePoFUT1 single mutant M172C, singly labelled with ATTO488 or ATTO647N (Caenorhabditis elegans) (UniProt Q18014). The experiment in a line: single-molecule fluorescence coincidence (dual-colour PIE); CePoFUT1-A488 and CePoFUT1-A647N incubated 1:1 at 1 uM for 30 min in 10 mM Tris, 1 mM EDTA, 0.005% Tween 20, pH 8.5, diluted to 40 pM; substrates at 15-fold molar excess where added; monomer to dimer.

For “CePoFUT1 single mutant M172C, singly labelled with ATTO488 or ATTO647N (from UniProt Q18014 26-383) (enzyme)”, the percent dimers (free form) came to 6.2%; the percent dimers (with GDP and HsEGF11-12-13) came to 4.6%; the percent dimers (with HsEGF11-12-13) turned out to be 6.7%; the percent dimers (with HsEGF12) amounted to 6.8%. For the same substance, the percent of total protein in a dimeric state was 4 to 6% and the stoichiometry N was found to be 2.
